Reference: patent publication US20050064507

Key:
[1] = target: T1, SPTBN4 peptide EGGDRRASGRRK (SEQ ID NO:110) (not fully specified)
T1 chain: EGGDRRASGRRK

[2] = target: T2, dag kinase iota peptide NRKKKRTSFKRKA (SEQ ID NO:115) (not fully specified)
T2 chain: NRKKKRTSFKRKA

[3] = target: T3, DGKI peptide NRKKKRTSFKRKA (SEQ ID NO:79) (not fully specified)
T3 chain: NRKKKRTSFKRKA

[4] = target: T4, PARIS1 peptide EYLERRASRRRAV (SEQ ID NO:138) (not fully specified)
T4 chain: EYLERRASRRRAV

[5] = target: T5, MLK3 peptide QQVDRERPHVRRRRGTFKRS (SEQ ID NO:128) (not fully specified)
T5 chain: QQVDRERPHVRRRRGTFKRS

[6] = target: T6, PRKCM peptide VHYTSKDTLRKRHYWR (SEQ ID NO:91) (not fully specified)
T6 chain: VHYTSKDTLRKRHYWR

[7] = target: T7, pkc-zeta peptide GLPAPGEDKSIYRRGSRRWR (SEQ ID NO:167) (not fully specified)
T7 chain: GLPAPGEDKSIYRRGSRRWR

[8] = target: T8, p47phox peptide QAQRQIKRGAPPRRSSIRNA (SEQ ID NO:146) (not fully specified)
T8 chain: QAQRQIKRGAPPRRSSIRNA

[9] = target: T9, ADD2 peptide KKKFRTPSFLKKSKK (SEQ ID NO:95) (not fully specified)
T9 chain: KKKFRTPSFLKKSKK

[10] = target: T10, PRKCA peptide RFARKGSLRQKNV (SEQ ID NO:85) (not fully specified)
T10 chain: RFARKGSLRQKNV

[11] = target: T11, calcium channel, voltage-dependent, L type, alpha peptide RDIRQSPKRGFLRSASLGRR (SEQ ID NO:147) (not fully specified)
T11 chain: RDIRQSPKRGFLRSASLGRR

[12] = target: T12, Urotensin-2 receptor peptide LYARLARAYRRSQRASFKRA (SEQ ID NO:159) (not fully specified)
T12 chain: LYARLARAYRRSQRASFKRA

[13] = target: T13, LIMK2 peptide KATTKKRTLRKNDRK (SEQ ID NO:108) (not fully specified)
T13 chain: KATTKKRTLRKNDRK

[14] = target: T14, … peptide KKPFKLSGLSFKRNRKE (SEQ ID NO:88) (not fully specified)
T14 chain: KKPFKLSGLSFKRNRKE

[15] = target: T15, MacMARCKS peptide KKKFSFKKPFKLSGLSFKRN (SEQ ID NO:162) (not fully specified)
T15 chain: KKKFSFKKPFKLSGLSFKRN

[16] = target: T16, ASIP peptide KKRSSKKEASMKKVVRP (SEQ ID NO:97) (not fully specified)
T16 chain: KKRSSKKEASMKKVVRP

[17] = target: T17, forkhead (Drosophila)-like 16 peptide RRERSRSRRKQ (SEQ ID NO:176) (not fully specified)
T17 chain: RRERSRSRRKQ

[18] = target: T18, PLEC1 peptide KRERKTSSKSSVRKRR (SEQ ID NO:81) (not fully specified)
T18 chain: KRERKTSSKSSVRKRR

[19] = target: T19, MARCKS peptide KKKKKRFSFKKSFKL (SEQ ID NO:80) (not fully specified)
T19 chain: KKKKKRFSFKKSFKL

[20] = target: T20, NR4A3 peptide KEVVRTDSLKGRRGR (SEQ ID NO:109) (not fully specified)
T20 chain: KEVVRTDSLKGRRGR

[21] = target: T21, beta adducin peptide KKKFRTPSFLKKSKK (SEQ ID NO:135) (not fully specified)
T21 chain: KKKFRTPSFLKKSKK

[22] = target: T22, PARIS1 peptide EYLERRASRRRAV (SEQ ID NO:130) (not fully specified)
T22 chain: EYLERRASRRRAV

[23] = target: T23, M1 muscarinic receptor peptide RWDKRRWRKIPKRPGSVHRT (SEQ ID NO:155) (not fully specified)
T23 chain: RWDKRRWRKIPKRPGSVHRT

[24] = target: T24, MARCKS peptide KKKRFSFKKSFKLSGFSFKK (SEQ ID NO:111) (not fully specified)
T24 chain: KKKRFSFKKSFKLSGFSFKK

[25] = target: T25, CREB1 peptide EILSRRPSYRKILND (SEQ ID NO:106) (not fully specified)
T25 chain: EILSRRPSYRKILND

[26] = target: T26, NIK peptide WKGKRRSKARKKRK (SEQ ID NO:131) (not fully specified)
T26 chain: WKGKRRSKARKKRK

[27] = target: T27, dag kinase zeta peptide KKKKRASFKRKSSKKG (SEQ ID NO:114) (not fully specified)
T27 chain: KKKKRASFKRKSSKKG

[28] = target: T28, FLJ20574 peptide GENVLKKSMKSRVKG (SEQ ID NO:113) (not fully specified)
T28 chain: GENVLKKSMKSRVKG

[29] = target: T29, SMARCA5 peptide MAQIERGEARIQRRISIKKA (SEQ ID NO:166) (not fully specified)
T29 chain: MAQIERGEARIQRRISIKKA

[30] = target: T30, CHRM1 peptide RKIPKRPGSVHRTPSRQ (SEQ ID NO:83) (not fully specified)
T30 chain: RKIPKRPGSVHRTPSRQ

[31] = target: T31, ARHGAP4 peptide PLRKSSLKKGGR (SEQ ID NO:193) (not fully specified)
T31 chain: PLRKSSLKKGGR

[32] = target: T32, kinesin 3C peptide LEKRGMLGKRPRRKSSRRKK (SEQ ID NO:133) (not fully specified)
T32 chain: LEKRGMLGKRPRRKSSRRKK

B1: PKC-theta (protein)
chain: MSPFLRIGLSNFDCGSCQSCQGEAVNPYCAVLVKEYVESENGQMYIQKKPTMYPPWDSTFDAHINKGRVMQIIVKGKNVDLISETTVELYSLAERCRKNNGKTEIWLELKPQGRMLMNARYFLEMSDTKDMNEFETEGFFALHQRRGAIKQAKVHHVKCHEFTATFFPQPTFCSVCHEFVWGLNKQGYQCRQCNAAIHKKCIDKVIAKCTGSAINSRETMFHKERFKIDMPHRFKVYNYKSPTFCEHCGTLLWGLARQGLKCDACGMNVHHRCQTKVANLCGINQKLMAEALAMIESTQQARCLRDTEQIFREGPVEIGLPCSIKNEARPPCLPTPGKREPQGISWESPLDEVDKMCHLPEPELNKERPSLQIKLKIEDFILHKMLGKGSFGKVFLAEFKKTNQFFAIKALKKDVVLMDDDVECTMVEKRVLSLAWEHPFLTHMFCTFQTKENLFFVMEYLNGGDLMYHIQSCHKFDLSRATFYAAEIILGLQFLHSKGIVYRDLKLDNILLDKDGHIKIADFGMCKENMLGDAKTNTFCGTPDYIAPEILLGQKYNHSVDWWSFGVLLYEMLIGQSPFHGQDEEELFHSIRMDNPFYPRWLEKEAKDLLVKLFVREPEKRLGVRGDIRQHPLFREINWEELERKEIDPPFRPKVKSPFDCSNFDKEFLNEKPRLSFADRALINSMDQNMFRNFSFMNPGMERLIS
Work on B1 yielded an in vitro phosphorylation (% of best substrate) [1] of 22, an in vitro phosphorylation, 1 uM peptide (% of best substrate) [2] of 89 and an in vitro phosphorylation, 10 uM peptide (% of best substrate) [2] of 77. The in vitro phosphorylation (% of best substrate) [3] was 33, the in vitro phosphorylation, 1 uM peptide (% of best substrate) [4] was 34 and the in vitro phosphorylation, 10 uM peptide (% of best substrate) [4] was 39. It also gave an in vitro phosphorylation, 1 uM peptide (% of best substrate) [5] of 41, an in vitro phosphorylation, 10 uM peptide (% of best substrate) [5] of 59 and an in vitro phosphorylation (% of best substrate) [6] of 10. The in vitro phosphorylation, 1 uM peptide (% of best substrate) [7] was 12, the in vitro phosphorylation, 10 uM peptide (% of best substrate) [7] was 14 and the in vitro phosphorylation, 1 uM peptide (% of best substrate) [8] was 33. For the same protein, the in vitro phosphorylation, 10 uM peptide (% of best substrate) [8] was 34, the in vitro phosphorylation (% of best substrate) [9] was 42 and the in vitro phosphorylation (% of best substrate) [10] was 46. The in vitro phosphorylation, 1 uM peptide (% of best substrate) [11] was 20, the in vitro phosphorylation, 10 uM peptide (% of best substrate) [11] was 69 and the in vitro phosphorylation, 1 uM peptide (% of best substrate) [12] was 21. The in vitro phosphorylation, 10 uM peptide (% of best substrate) [12] was 17, the in vitro phosphorylation (% of best substrate) [13] was 32 and the in vitro phosphorylation (% of best substrate) [14] was 38. It also gave an in vitro phosphorylation, 1 uM peptide (% of best substrate) [15] of 14, an in vitro phosphorylation, 10 uM peptide (% of best substrate) [15] of 13 and an in vitro phosphorylation (% of best substrate) [16] of 31. It also gave an in vitro phosphorylation (% of best substrate) [17] of 66, an in vitro phosphorylation (% of best substrate) [18] of 46 and an in vitro phosphorylation (% of best substrate) [19] of 63. It also gave an in vitro phosphorylation (% of best substrate) [20] of 9, an in vitro phosphorylation, 1 uM peptide (% of best substrate) [21] of 30 and an in vitro phosphorylation, 10 uM peptide (% of best substrate) [21] of 36. For the same protein, the in vitro phosphorylation, 1 uM peptide (% of best substrate) [22] was 38, the in vitro phosphorylation, 10 uM peptide (% of best substrate) [22] was 44 and the in vitro phosphorylation, 1 uM peptide (% of best substrate) [23] was 23. It also gave an in vitro phosphorylation, 10 uM peptide (% of best substrate) [23] of 26, an in vitro phosphorylation (% of best substrate) [24] of 18 and an in vitro phosphorylation (% of best substrate) [25] of 19. The in vitro phosphorylation, 1 uM peptide (% of best substrate) [26] was 53, the in vitro phosphorylation, 10 uM peptide (% of best substrate) [26] was 35 and the in vitro phosphorylation, 1 uM peptide (% of best substrate) [27] was 100. The in vitro phosphorylation, 10 uM peptide (% of best substrate) [27] was 86, the in vitro phosphorylation (% of best substrate) [28] was 10 and the in vitro phosphorylation, 1 uM peptide (% of best substrate) [29] was 13. It also gave an in vitro phosphorylation, 10 uM peptide (% of best substrate) [29] of 13, an in vitro phosphorylation (% of best substrate) [30] of 92 and an in vitro phosphorylation (% of best substrate) [31] of 35. For the same protein, the in vitro phosphorylation, 1 uM peptide (% of best substrate) [32] was 46 and the in vitro phosphorylation, 10 uM peptide (% of best substrate) [32] was 53.
